Data: PMC8136814

Molecular target: R3B2 1-273 (RIIID and first dsRBD) (Mucor lusitanicus)
Assay: SEC-MALS

Work on “R3B2 1-273 (RIIID and first dsRBD) (domain or fragment)” yielded a stoichiometry N of 2.
